Consider 13 molecules from patent EP4725969A1 (Latticon (Suzhou) Biopharmaceuticals Co., Ltd., dated 2024).

To fix the notation:
B1: Hu2117HK-Mu10 (Fc fusion)
scFv: EVQLVESGGGLVQPGGSLRLSCAASGFTYSSYGMSWVRQAPGKGLEWVASISGGGSYTKYVDSVKGRFTISRDNSKNTLYLQMNSLRAEDTAVYYCARDYAGFFDVWGQGTLVTVSSGGGGSGGGGSGGGGSDIQMTQSPSSLSASVGDRVTITCRSSQSLVHSNGNTYLHWYQQKPGKAPKLLIYKVSNRFSGVPSRFSGSGSGTDFTLTISSLQPEDFATYFCSQSTHVPYTFGQGTKVEIK
notes: scFv-hIgG1 Fc; not shown: human IgG1 Fc
B2: Hu2117HK-Mu20 (Fc fusion, name in Kabat numbering)
scFv: EVQLVESGGGLVQPGGSLRLSCAASGFTYSSYGMSWVRQAPGKGLEWVASISGGGSYTKYPDSVKGRFTISRDNSKNTLYLQMNSLRAEDTAVYYCARDYAGFFDVWGQGTLVTVSSGGGGSGGGGSGGGGSDIQMTQSPSSLSASVGDRVTITCRSSQSLVHSSGNTYLHWYQQKPGKAPKLLIYKVSNRFSGVPSRFSGSGSGTDFTLTISSLQPEDFATYFCSQSTHVPYTFGQGTKVEIK
notes: as for B1
B3: Hu2117HK-Mu22 (Fc fusion, name in Kabat numbering)
scFv: EVQLVESGGGLVQPGGSLRLSCAASGFTYSSYGMSWVRQAPGKGLEWVASISGGGSYTKYPDSVKGRFTISRDNSKNTLYLQMNSLRAEDTAVYYCARDYAGFFDVWGQGTLVTVSSGGGGSGGGGSGGGGSDIQMTQSPSSLSASVGDRVTITCRSSQSLVHSVGNTYLHWYQQKPGKAPKLLIYKVSNRFSGVPSRFSGSGSGTDFTLTISSLQPEDFATYFCSQSTHVPYTFGQGTKVEIK
notes: as for B1
B4: Hu2117HK-Mu19 (Fc fusion, name in Kabat numbering)
scFv: EVQLVESGGGLVQPGGSLRLSCAASGFTYSSYGMSWVRQAPGKGLEWVASISGGGSYTKYPDSVKGRFTISRDNSKNTLYLQMNSLRAEDTAVYYCARDYAGFFDVWGQGTLVTVSSGGGGSGGGGSGGGGSDIQMTQSPSSLSASVGDRVTITCRSSQSLVHSQGNTYLHWYQQKPGKAPKLLIYKVSNRFSGVPSRFSGSGSGTDFTLTISSLQPEDFATYFCSQSTHVPYTFGQGTKVEIK
notes: as for B1
B5: Hu2117HK-Mu18 (Fc fusion, name in Kabat numbering)
scFv: EVQLVESGGGLVQPGGSLRLSCAASGFTYSSYGMSWVRQAPGKGLEWVASISGGGSYTKYPDSVKGRFTISRDNSKNTLYLQMNSLRAEDTAVYYCARDYAGFFDVWGQGTLVTVSSGGGGSGGGGSGGGGSDIQMTQSPSSLSASVGDRVTITCRSSQSLVHSLGNTYLHWYQQKPGKAPKLLIYKVSNRFSGVPSRFSGSGSGTDFTLTISSLQPEDFATYFCSQSTHVPYTFGQGTKVEIK
notes: as for B1
B6: Hu2117HK-Mu21 (Fc fusion, name in Kabat numbering)
scFv: EVQLVESGGGLVQPGGSLRLSCAASGFTYSSYGMSWVRQAPGKGLEWVASISGGGSYTKYPDSVKGRFTISRDNSKNTLYLQMNSLRAEDTAVYYCARDYAGFFDVWGQGTLVTVSSGGGGSGGGGSGGGGSDIQMTQSPSSLSASVGDRVTITCRSSQSLVHSTGNTYLHWYQQKPGKAPKLLIYKVSNRFSGVPSRFSGSGSGTDFTLTISSLQPEDFATYFCSQSTHVPYTFGQGTKVEIK
notes: as for B1
B7: Hu2117HK-Mu17 (Fc fusion, name in Kabat numbering)
scFv: EVQLVESGGGLVQPGGSLRLSCAASGFTYSSYGMSWVRQAPGKGLEWVASISGGGSYTKYPDSVKGRFTISRDNSKNTLYLQMNSLRAEDTAVYYCARDYAGFFDVWGQGTLVTVSSGGGGSGGGGSGGGGSDIQMTQSPSSLSASVGDRVTITCRSSQSLVHSIGNTYLHWYQQKPGKAPKLLIYKVSNRFSGVPSRFSGSGSGTDFTLTISSLQPEDFATYFCSQSTHVPYTFGQGTKVEIK
notes: as for B1
B8: Hu2117HK-Mu14 (Fc fusion)
scFv: EVQLVESGGGLVQPGGSLRLSCAASGFTYSSYGMSWVRQAPGKGLEWVASISGGGSYTKYPGSVKGRFTISRDNSKNTLYLQMNSLRAEDTAVYYCARDYAGFFDVWGQGTLVTVSSGGGGSGGGGSGGGGSDIQMTQSPSSLSASVGDRVTITCRSSQSLVHSNGNTYLHWYQQKPGKAPKLLIYKVSNRFSGVPSRFSGSGSGTDFTLTISSLQPEDFATYFCSQSTHVPYTFGQGTKVEIK
notes: as for B1
B9: Hu2117HK-Mu23 (Fc fusion)
scFv: EVQLVESGGGLVQPGGSLRLSCAASGFTYSSYGMSWVRQAPGKGLEWVASISGGGSYTKYPDSVKGRFTISRDNSKNTLYLQMNSLRAEDTAVYYCARDYAGFFDVWGQGTLVTVSSGGGGSGGGGSGGGGSDIQMTQSPSSLSASVGDRVTITCRSSQSLVHSNANTYLHWYQQKPGKAPKLLIYKVSNRFSGVPSRFSGSGSGTDFTLTISSLQPEDFATYFCSQSTHVPYTFGQGTKVEIK
notes: as for B1
B10: Hu2117HK-Mu16 (Fc fusion, name in Kabat numbering)
scFv: EVQLVESGGGLVQPGGSLRLSCAASGFTYSSYGMSWVRQAPGKGLEWVASISGGGSYTKYPDSVKGRFTISRDNSKNTLYLQMNSLRAEDTAVYYCARDYAGFFDVWGQGTLVTVSSGGGGSGGGGSGGGGSDIQMTQSPSSLSASVGDRVTITCRSSQSLVHSGGNTYLHWYQQKPGKAPKLLIYKVSNRFSGVPSRFSGSGSGTDFTLTISSLQPEDFATYFCSQSTHVPYTFGQGTKVEIK
notes: as for B1
B11: Hu2117HK-Mu12 (Fc fusion)
scFv: EVQLVESGGGLVQPGGSLRLSCAASGFTYSSYGMSWVRQAPGKGLEWVASISGGGSYTKYPDSVKGRFTISRDNSKNTLYLQMNSLRAEDTAVYYCARDYAGFFDVWGQGTLVTVSSGGGGSGGGGSGGGGSDIQMTQSPSSLSASVGDRVTITCRSSQSLVHSNGNTYLHWYQQKPGKAPKLLIYKVSNRPSGVPSRFSGSGSGTDFTLTISSLQPEDFATYFCSQSTHVPYTFGQGTKVEIK
notes: as for B1
B12: Hu2117HK-Mu11 (Fc fusion)
scFv: EVQLVESGGGLVQPGGSLRLSCAASGFTYSSYGMSWVRQAPGKGLEWVASISGGGSYTKYPDSVKGRFTISRDNSKNTLYLQMNSLRAEDTAVYYCARDYAGFFDVWGQGTLVTVSSGGGGSGGGGSGGGGSDIQMTQSPSSLSASVGDRVTITCRSSQSLVHSNGNTYLHWYQQKPGKAPKLLIYKVSNRDSGVPSRFSGSGSGTDFTLTISSLQPEDFATYFCSQSTHVPYTFGQGTKVEIK
notes: as for B1
B13: Hu2117HK-Mu13 (Fc fusion)
scFv: EVQLVESGGGLVQPGGSLRLSCAASGFTYSSYGMSWVRQAPGKGLEWVASISGGGSYTKYPDSVKGRFTISRDNSKNTLYLQMNSLRAEDTAVYYCARDYAGFFDVWGQGTLVTVSSGGGGSGGGGSGGGGSDIQMTQSPSSLSASVGDRVTITCRSSQSLVHSNGNTYLHWYQQKPGKAPKLLIYKVSNRFSGVPSRFSGSGSGTDFTLTISSLQPEDFATYYCSQSTHVPYTFGQGTKVEIK
notes: scFv-hIgG1 Fc; also called Hu2117HK-Mul3; not shown: human IgG1 Fc

The target of this assay is T1, recombinant human HER2 extracellular domain protein (human, UniProt P04626 23-652).
T1 construct: range 23-652; Range is printed for the immunogen/panning protein; also called ErbB2; recombinant HER2 protein
Description: BLI, Protein A capture. On the technique in general: Biolayer interferometry detects binding as a change in optical thickness at a sensor tip.
By Kd is commonly meant a measure of binding affinity in units of concentration. As a reminder, the koff is a measure of how fast the partners let go of each other. What is called kon is the rate constant with which the complex forms. As to B1, the Kd worked out at 7.05 nM, the koff is 0.000546 s⁻¹ and the kon worked out at 77400 M⁻¹ s⁻¹.

Consider B2, for which the Kd turned out to be 13.3 nM, the koff was 0.000616 s⁻¹ and the kon came to 46500 M⁻¹ s⁻¹.

As for B3, the Kd amounted to 13.4 nM, the dissociation rate constant (koff) came to 0.00059 s⁻¹ and the kon turned out to be 43900 M⁻¹ s⁻¹.

Consider B4, for which the Kd amounted to 13.9 nM, the koff is 0.000837 s⁻¹ and the kon was 60100 M⁻¹ s⁻¹.

For the molecule B5, the Kd came to 11.4 nM, the koff is 0.000483 s⁻¹ and the kon stood at 42600 M⁻¹ s⁻¹.

Regarding B6, the Kd was 12 nM, the koff amounted to 0.00056 s⁻¹ and the kon came out at 46800 M⁻¹ s⁻¹.

Regarding B7, the Kd was 14.9 nM, the off-rate constant (koff) worked out at 0.000738 s⁻¹ and the association rate constant (kon) is 49500 M⁻¹ s⁻¹.

On to B8, for which the Kd is 7.16 nM, the koff came out at 0.000624 s⁻¹ and the kon was 87200 M⁻¹ s⁻¹.

For B9, the Kd stood at 6.67 nM, the koff amounted to 0.000542 s⁻¹ and the kon amounted to 81200 M⁻¹ s⁻¹.

Take B10: the Kd came to 8.76 nM, the koff was 0.00051 s⁻¹ and the kon is 58200 M⁻¹ s⁻¹.

In the case of B11, the Kd amounted to 6.4 nM, the koff was 0.000453 s⁻¹ and the kon was 70800 M⁻¹ s⁻¹.

Take B12: the Kd was 9.41 nM, the koff is 0.000803 s⁻¹ and the on-rate (kon) was 85400 M⁻¹ s⁻¹.

Consider B13, for which the Kd was 6.05 nM, the koff amounted to 0.000484 s⁻¹ and the kon was 80100 M⁻¹ s⁻¹.
